Source: patent publication US7892769B2, “Processing of EphA4 polypeptide by γ-secretase activity” (Eisai R&D Management Co., Ltd., priority 2007, dated 2011)

Key:
NIH3T3 cells = assay: Lamellipodia formation (Rac1 activation indicator) after gene transfer into NIH3T3 cells; assay type: cell-based; conditions: for ratios of lamellipodia forming cells: EICD deletion mutants transfected separately, compared with HA, FIG. 8; for lamellipodia formation promotive capacity: cotransfected with Rac1N17 (dominant negative form of Rac1); for lamellipodia formation promotive capacity / lamellipodia formation: FIG. 6, FIG. 7; for lamellipodia formation: fragment gene transfected alone, vs HA control
Description: In order to examine whether or not EICD produced by γ-secretase is involved in the signaling mechanism of Rho family molecules, and activation of which molecule EICD is involved in, gene transfer into NIH3T3 cells was performed, followed by analysis of the effect of EICD in the rearrangement of actin cytoskeletons in which Rho family molecules are involved. In the rearrangement, the following facts are known: when RhoA is activated, actin fibers called stress fibers are formed at the bottom of cells; when Cdc42 is activated, protrusions called filopodia are formed; when Rac1 is activated, structures called lamellipodia are formed. The effect of EICD was examined with these formations as indicators.
NIH3T3 cells were cultured in 10% CBS (flow)/Antibiotic-Antimycotic (Invitrogen)/DMEM (Invitrogen) under 5% CO2 at 37° C. Genes encoding HA-EICD (SEQ ID NO: 93) or EICD+Rac1N17 (SEQ ID NO: 200) were transfected into the cells with Lipofectamine 2000 (Invitrogen). Eighteen hours later, the cells were replated in wells provided with poly-L-lysin (SIGMA)-coated 13 mm cover glass. Eighteen hours thereafter, the cells were fixed in 2% paraformaldehyde (Wako), treated with 0.25% TritonX-100 and blocked with BlockAce (Snow Brand Milk Products). After the blocking, the cells were treated with rat anti-HA antibody (Roche), followed by reaction with FITC-linked anti-rat IgG antibody (Jackson) and Alexa Fluor phalloidin 546 (Molecular probes).
In the above-mentioned Example 6, the EphA4 fragment used in Example 5 (SEQ ID NO: 197) was transfected instead of the HA-EphA4 intracellular fragment and lamellipodia formation was analyzed in the same way.
Genes encoding HA, HA-EICD (SEQ ID NO: 93) and various EICD mutants (HA-EICD Δ1 to HA-EICD Δ4) prepared in (1) above were transfected to NIH3T3 cells separately in the same manner as described in Examples 6 and 7. Then, ratios of lamellipodia forming cells were examined. In the various EICD mutants described below, capital letters appearing at the 5′ end of the nucleotide sequences represent a nucleotide sequence encoding HA tag. Small letters appearing at the 3′ end represent a nucleotide sequence encoding EphA4 intracellular fragment.

[1] = tested on: primary culture of rat hippocampal neurons; assay: Spine formation analysis by overexpression of EphA4 fragments in primary culture of rat hippocampal neurons; assay type: cell-based; conditions: fragment gene transfected on day 9 of culture, counted twelve days after gene transfer, GFP-visualized; vs HA control; FIG. 4, FIG. 5
Description: Primary culture of rat hippocampal neurons were cultured in the same manner as described in Example 2. On day 9 of culture, gene transfer experiment was performed using Lipofectamine 2000 (Invitrogen) according to the manual. In order to visualize the morphology of spines, pcDNA3.1Syn1 GFP (SEQ ID NO: 306) was co-transferred into the neurons. Twelve days after the gene transfer, the neurons were fixed with 2% paraformaldehyde, treated with 0.25% TritonX-100 and blocked with BlockAce (Snow Brand Milk). After the blocking, the neurons were treated with rabbit anti-GFP antibody (Invitrogen) and rat anti-HA antibody (Roche); and reacted with FITC-linked anti-rabbit IgG antibody (Jackson), Cy3-linked anti-mouse IgG antibody (Jackson) and Cy5-linked anti-rat IgG antibody (Jackson). […] The spines (protuberances formed on dendrites) which were visualized by the expression of GFP were counted. Image data were quantitatively determined with image analysis software Metamorph (Molecular Devices). pcDNA3.1Syn1 GFP may be obtained by the procedures described below.
In the above-mentioned Example 4, the gene with an HA tag added to its N-terminus (SEQ ID NO:197), which is one of the two cleaved fragments, was transfected instead of the HA-EphA4 intracellular fragment and spine formation was analyzed in the same way based on the cleavage site specified in Example 3.

Molecule | ratios of lamellipodia forming cells (NIH3T3 cells) | number of spines [1] | lamellipodia formation promotive capacity (NIH3T3 cells) | lamellipodia formation (NIH3T3 cells)
EICD Δ2: HA-tagged EphA4 intracellular deletion mutant, 622 amino acid-Stop, SEQ ID NO: 170 (protein, listed as Rattus norvegicus, HA tag) MDYPYDVPDYATRVDKIEKVIGVGEFGEVCSGRLKVPGKREICVAIKTLKAGYTDKQRRDFLSEASIMGQFDHPNIIHLEGVVTKCKPVMIITEYMENGSLDAFLRKNDGRFTVIQLVGMLRGIGSGMKYLSDMSYVHRDLAARNILVNSNLVCKVSDFGMSRVLEDDPEAAYTTRGGKIPIRWTAPEAIAYRKFTSASDVWSYGIVMWEVMSYGERPYWDMSNQDVIKAIEEGYRLPPPMDCPIALHQLMLDCWQKERSDRPKFGQIVNMLDKLIRNPNSLKRTGPESSRPNTALLDPSSPEFSAVVSVGDWLQAIKMDRYKDNFTAAGYTTLEAVVHMSQDDLARIGITAITHQNKILSSVQAMRTQMQQMHGRMVPV | almost the same level as that of HA | – | – | –
HA-EICD: rat EphA4 intracellular domain (amino acid 571 to stop) with N-terminal HA tag, SEQ ID NO: 94, expressed by transfection (protein, listed as Rattus norvegicus, N-terminal HA tag) MDYPYDVPDYATRVERRRSKYSQAKQEADEEKHLNQGVRTYVDPFTYEDPNQAVREFAKEIDASCIKIEKVIGVGEFGEVCSGRLKVPGKREICVAIKTLKAGYTDKQRRDFLSEASIMGQFDHPNIIHLEGVVTKCKPVMIITEYMENGSLDAFLRKNDGRFTVIQLVGMLRGIGSGMKYLSDMSYVHRDLAARNILVNSNLVCKVSDFGMSRVLEDDPEAAYTTRGGKIPIRWTAPEAIAYRKFTSASDVWSYGIVMWEVMSYGERPYWDMSNQDVIKAIEEGYRLPPPMDCPIALHQLMLDCWQKERSDRPKFGQIVNMLDKLIRNPNSLKRTGPESSRPNTALLDPSSPEFSAVVSVGDWLQAIKMDRYKDNFTAAGYTTLEAVVHMSQDDLARIGITAITHQNKILSSVQAMRTQMQQMHGRMVPV | – | increases the number of spines | disappeared completely | lamellipodia formation is promoted
EICD Δ3: HA-tagged EphA4 intracellular deletion mutant, 661 amino acid-Stop, SEQ ID NO: 172 (protein, listed as Rattus norvegicus, HA tag) MDYPYDVPDYATRVDDKQRRDFLSEASIMGQFDHPNIIHLEGVVTKCKPVMIITEYMENGSLDAFLRKNDGRFTVIQLVGMLRGIGSGMKYLSDMSYVHRDLAARNILVNSNLVCKVSDFGMSRVLEDDPEAAYTTRGGKIPIRWTAPEAIAYRKFTSASDVWSYGIVMWEVMSYGERPYWDMSNQDVIKAIEEGYRLPPPMDCPIALHQLMLDCWQKERSDRPKFGQIVNMLDKLIRNPNSLKRTGPESSRPNTALLDPSSPEFSAVVSVGDWLQAIKMDRYKDNFTAAGYTTLEAVVHMSQDDLARIGITAITHQNKILSSVQAMRTQMQQMHGRMVPV | almost the same level as that of HA | – | – | –
EICD Δ1: HA-tagged EphA4 intracellular deletion mutant, 587 amino acid-Stop, SEQ ID NO: 168 (protein, listed as Rattus norvegicus, HA tag) MDYPYDVPDYATRVDKHLNQGVRTYVDPFTYEDPNQAVREFAKEIDASCIKIEKVIGVGEFGEVCSGRLKVPGKREICVAIKTLKAGYTDKQRRDFLSEASIMGQFDHPNIIHLEGVVTKCKPVMIITEYMENGSLDAFLRKNDGRFTVIQLVGMLRGIGSGMKYLSDMSYVHRDLAARNILVNSNLVCKVSDFGMSRVLEDDPEAAYTTRGGKIPIRWTAPEAIAYRKFTSASDVWSYGIVMWEVMSYGERPYWDMSNQDVIKAIEEGYRLPPPMDCPIALHQLMLDCWQKERSDRPKFGQIVNMLDKLIRNPNSLKRTGPESSRPNTALLDPSSPEFSAVVSVGDWLQAIKMDRYKDNFTAAGYTTLEAVVHMSQDDLARIGITAITHQNKILSSVQAMRTQMQQMHGRMVPV | lamellipodia forming cells are increased | – | – | –
EICD Δ4: HA-tagged EphA4 intracellular deletion mutant, 701 amino acid-Stop, SEQ ID NO: 174 (protein, listed as Rattus norvegicus, HA tag) MDYPYDVPDYATRVDYMENGSLDAFLRKNDGRFTVIQLVGMLRGIGSGMKYLSDMSYVHRDLAARNILVNSNLVCKVSDFGMSRVLEDDPEAAYTTRGGKIPIRWTAPEAIAYRKFTSASDVWSYGIVMWEVMSYGERPYWDMSNQDVIKAIEEGYRLPPPMDCPIALHQLMLDCWQKERSDRPKFGQIVNMLDKLIRNPNSLKRTGPESSRPNTALLDPSSPEFSAVVSVGDWLQAIKMDRYKDNFTAAGYTTLEAVVHMSQDDLARIGITAITHQNKILSSVQAMRTQMQQMHGRMVPV | almost the same level as that of HA | – | – | –
HA-γ-fragment: γ-secretase-cleaved rat EphA4 intracellular fragment with N-terminal HA tag, SEQ ID NO: 198, expressed by transfection (protein, N-terminal HA tag; synthetic DNA) MSALLILALVGAAVAGSEFTRVEVTTNTVPSRIIGDGANSTVLLVSVSGSVVLVVILIAAFVISRRRSKYSQAKQEADEEKHLNQGVRTYVDPFTYEDPNQAVREFAKEIDASCIKIEKVIGVGEFGEVCSGRLKVPGKREICVAIKTLKAGYTDKQRRDFLSEASIMGQFDHPNIIHLEGVVTKCKPVMIITEYMENGSLDAFLRKNDGRFTVIQLVGMLRGIGSGMKYLSDMSYVHRDLAARNILVNSNLVCKVSDFGMSRVLEDDPEAAYTTRGGKIPIRWTAPEAIAYRKFTSASDVWSYGIVMWEVMSYGERPYWDMSNQDVIKAIEEGYRLPPPMDCPIALHQLMLDCWQKERSDRPKFGQIVNMLDKLIRNPNSLKRTGPESSRPNTALLDPSSPEFSAVVSVGDWLQAIKMDRYKDNFTAAGYTTLEAVVHMSQDDLARIGITAITHQNKILSSVQAMRTQMQQMHGRMVPVAAAMDYPYDVPDYA | – | increases the number of spines | disappeared completely | promotes lamellipodia formation
